A short description of this series: soluble on expression in E. coli; label from the status in PepcDB or PDB records.
As for “MGHHHHHHGGHMSLAQNDHETVDMLLVGAGIMSATLAVLLKELDPNLKMEVVELQESGAIESSNPWNNAGTGHAGLCELNYTPQSADGSIDIKKAVGINTMFEVSKQLWSHLVAKGTFGSPKTFINPVPHLSFVRGSEGIAYLKKRFESLTKHHAFETMVYSEDKATLAEWMPLMMPGRPADEAIAATRVEGGTDVNFGALTNQLLQHLAQQPGAQIRYNQKVTHLRRADNGWRVTVKDTRNGGDREIQARFVFLGAGGGALPLLQLSGIPEGKGFGGFPVSGQWLRCDNPEIVKQHQAKVYSQAEVGSPPMSVPHLDTRVVDGKKSLLFGPYAGFSTKFLRHGSFLDLPLSVRPGNILPMLSVARDNMDLTRYLIGQVMQSPEQRLEALRKFYPEARAEDWRLEVAGQRVQIIKKDPKKGGILQFGTELVAAHDGSIAALLGASPGASVTVSIMLGLIERCFPEQARSPEWSAKLKEIFPAREKELESDAELYRSVSSRCSEVLELTAKNDVQAEGGS”, the “soluble on expression in E. coli” value was “soluble”.

Take “MGHHHHHHGGHMSLVRITWCPGCGNFAILKAFERASRRVIEEGFDIAVSSGIGCHGKISDYLSLPGFHVIHGRVPPFLTGLKLANPNLVVVGFSGDGDGLNEGVEHLVHAARRNTDITIILHNNGVFGLTTGQVTATSPRGRKSRSTPRGNPEYPLNPCHLMLVSGATFVARVFAGEQERLSEVFYNAMKHKGFSFVEVMQPCVSFNNFWEMRKEIYWIERSSDLLEAMKNCSDAKACGIFYAEEKETYEDAVWKSTFEGGS”: the “soluble on expression in E. coli” value is reported as “soluble”.

Turning to “MGHHHHHHGSLVPRGSRAYSFKVVLLGEGCVGKTSLVLRYCENKFNDKHITTLQASFLTKKLNIGGKRVNLAIWDTAGQERFHALGPIYYRDSNGAILVYDITDEDSFQKVKNWVKELRKMLGNEICLCIVGNKIDLEKERHVSIQEAESYAESVGAKHYHTSAKQNKGIEELFLDLCKRMIET”, the “soluble on expression in E. coli” value is on record as “soluble”.

With “MGHHHHHHHHHHSSGHIDDDDKHMYTKIIGTGSYLPEQVRTNADLEKMVDTSDEWIVTRTGIRERHIAAPNETVSTMGFEAATRAIEMAGIEKDQIGLIVVATTSATHAFPSAACQIQSMLGIKGCPAFDVAAACAGFTYALSVADQYVKSGAVKYALVVGSDVLARTCDPTDRGTIIIFGDGAGAAVLAASEEPGIISTHLHADGSYGELLTLPNADRVNPENSIHLTMAGNEVFKVAVTELAHIVDETLAANNLDRSQLDWLVPHQANLRIISATAKKLGMSMDNVVVTLDRHGNTSAASVPCALDEAVRDGRIKPGQLVLLEAFGGGFTWGSALVRF”, the “soluble on expression in E. coli” value is recorded as “soluble”.

“MGHHHHHHHHHHSSGHIEGRHMAAVTLHLRAETKPLEARAALTPTTVKKLIAKGFKIYVEDSPQSTFNINEYRQAGAIIVPAGSWKTAPRDRIIIGLKEMPETDTFPLVHEHIQFAHCYKDQAGWQNVLMRFIKGHGTLYDLEFLENDQGRRVAAFGFYAGFAGAALGVRDWAFKQTHSDDEDLPAVSPYPNEKALVKDVTKDYKEALATGARKPTVLIIGALGRCGSGAIDLLHKVGIPDANILKWDIKETSRGGPFDEIPQADIFINCIYLSKPIAPFTNMEKLNNPNRRLRTVVDVSADTTNPHNPIPIYTVATVFNKPTVLVPTTAGPKLSVISIDHLPSLLPREASEFFSHDLLPSLELLPQRKTAPVWVRAKKLFDRHCARVKRSSRL”: the “soluble on expression in E. coli” value is “soluble”.

Turning to “MGHHHHHHMAGVSEYELPEDPRWELPRDRLVLGKPLGEGAFGQVVLAEAIGLDKDKPNRVTKVAVKMLKSDATEKDLSDLISEMEMMKMIGKHKNIINLLGACTQDGPLYVIVEYASKGNLREYLQARRPPGLEFSFNPSHNPEEQLSSKDLVSCAYQVARGMEYLASKKCIHRDLAARNVLVTEDNVMKIADFGLARDIHHIDYYKKTTNGRLPVKWMAPEALFDRIYTHQSDVWSFGVLLWEIFTLGGSPYPGVPVEELFKLLKEGHRMDKPSNCTNELYMMMRDCWHAVPSQRPTFKQLVEDLDRIVALTSNQEYLDLSMPLD”, the “soluble on expression in E. coli” value is reported as “soluble”.

With “MGHHHHHHSHCPQESVYCENKCGARMMRRLLAQHATSECPKRTQPCTYCTKEFVFDTIQSHQYQCPRLPVACPNQCGVGTVAREDLPGHLKDSCNTALVLCPFKDSGCKHRCPKLAMARHVEESVKP”, the “soluble on expression in E. coli” value was “not soluble”.

As to “MGHHHHHHSHCSSCSTPLYDQGGPVEILPFLYLGSAYHASRKDMLDALGITALINVSANCPNHFEGHYQYKSIPVEDNHKADISSWFNEAIDFIDSIKNAGGRVFVHCQAGISRSATICLAYLMRTNRVKLDEAFEFVKQRRSIISPNFSFMGQLLQFESQVLAPHCSAEAGSPAMAVLDRGTSTTTVFNFPVSIPVHSTNSALSYLQSPITTSPSC”, the “soluble on expression in E. coli” value is given as “not soluble”.

Consider “MGHHHHHHSHDFEFIRRVEASEESLDVVFAGRLIKEKGADLLIKAMKLLPDYSCLIVGEGPEKASLIKSAPENVKFAGFMNYGYLIATLKSAKVFVLPSRREGFGIAALEANACGLPVVTINHPMNAVVEIARETGFIASPSPQDIAEKIKIAMESRKKMRRRCVDYARKF”, for which the “soluble on expression in E. coli” value is given as “not soluble”.

Turning to “MGHHHHHHSHDQLDRAGVAAVALSGGEPTIHPHFLRIVKELSSRGIHTSVATNGWTFADKEKLEEAVKAGLKYVEISVDSAKPEKHDEFRGIPGAWERAIKALENAVEIGVSHGMAVIMDKETYQEMDDILDLAESIGVKRVIFFNLVPTGRAEDMVKVDLTPEEREEFLKELYHQMKKRKLEILTTAPQYARVTLIESQGKNVSPAHFYVGQNTAVKTLAEFIGGCGAGRIYAGIEPDGTVVPCVFL”, the “soluble on expression in E. coli” value is “not soluble”.

With “MGHHHHHHSHIAMRRDRGPKPALGGAGEVEPGGMAASPTGRPRRLQRYLQSGEFDQFRDFPIFESNFVQVTRLGEVANEVTMGVAASSPALELPDLLLLAGPAKENGHLQLFGLFPLKFVQLFVHDKSRCQLEVKLNTSRTFYLQLRAPLKTRDREFGQWVRLLYRLRFLSASAVPFTQE”, the “soluble on expression in E. coli” value is on record as “not soluble”.

On to “MGHHHHHHSHIEETTMTTQTPAPIQAPSAILPLPGQSVERLCVDPRHRQGPVNLLSDPEQGVEVTGQYEREKAGFSWIEVTFKNPLVWVHASPEHVVVTRNRRSSAYKWKETLFSVMPGLKMTMDKTGLLLLSDPDKVTIGLLFWDGRGEGLRLLLRDTDRFSSHVGGTLGQFYQEVLWGSPAASD”, for which the “soluble on expression in E. coli” value is on record as “not soluble”.

Take “MGHHHHHHSHIELVCWYMVDRDSIDDEPVDIAFIEGSVSTEEEVELVKKIRENSKIVVAVGACAVQGGVQSWTDKSLEELWRTVYGDAKVKFKPKKAEPVSKYIKVDYNIYGCPPEKRDFLYALGTFL”: the “soluble on expression in E. coli” value was “not soluble”.

In the case of “MGHHHHHHSHKKHNQGKEAAQRVLSQIDVAQKKLQDVSMKFRLFQKPANFEQRLQESKMILDEVKMHLPALETKSVEQEVVQSQLNHCVNLYKSLSEVKSEVEMVIKTGRQIVQKKQTENPKELDERVTALKLHYNELGAKVTERKQQLEKCLKLSRKMRKEMNVLTEWLAATDMELTKRSAVEGMPSNLDSEVAWGKATQKEIEKQKVHLKSITEVGEALKTVLGKKETLVEDKLSLLNSNWIAVTSRAEEWLNLLLEYQKHMETFDQNVDHITKWIIQADTLLDESEKKK”, the “soluble on expression in E. coli” value was “soluble”.

For “MGHHHHHHSHLCTNFFIFTGGPGSGKTAVLNELNTWGYLTVSEVARSIIQKQQADGGDAIHTGNRKAFRDLMLEQSIADYCKMQSEEKIVFFDRGIPDLYGYSKAFCGEASKEVNEAVGRFRYNKTVFIFPPWPEIYENDDERQQDYQEALQTYYAVKEGYFDCGYVLLEVPKCPIKDRANFIFQMISKNG”, the “soluble on expression in E. coli” value is reported as “not soluble”.

Take “MGHHHHHHSHLKKNEQNFKLAGVKKDIEKLYEAVPQLSNVFKIEDKIGEGTFSSVYLATAQLQVGPEEKIALKHLIPTSHPIRIAAELQCLTVAGGQDNVMGVKYCFRKNDHVVIAMPYLEHESFLDILNSLSFQEVREYMLNLFKALKRIHQFGIVHRDVKPSNFLYNRRLKKYALVDFGLAQGTHDTKIELLKFVQSEAQQERCSQNKSHIITGNKIPLSGPVPKELDQQSTTKASVKRPYTNAQIQIKQGKDGKEGSVGLSVQRSVFGERNFNIHSSISHESPAVKLMKQSKTVDVLSRKLATKKKAISTKVMNSAVMRKTASSCPASLTCDCYATDKVCSICLSRRQQVAPRAGTPGFRAPEVLTKCPNQTTAIDMWSAGVIFLSLLSGRYPFYKASDDLTALAQIMTIRGSRETIQAAKTFGKSILCSKEVPAQDLRKLCERLRGMDSSTPKLTSDIQGHASHQPAISEKTDHKASCLVQTPPGQYSGNSFKKGDSNSCEHCFDEYNTNLEGWNEVPDEAYDLLDKLLDLNPASRITAEEALLHPFFKDMSL”: the “soluble on expression in E. coli” value is recorded as “not soluble”.

As to “MGHHHHHHSHLRHKEPGSGSGGGVYWVDSQQKRYVPVKGDHVIGIVTAKSGDIFKVDVGGSEPASLSYLSFEGATKRNRPNVQAISSRL”, the “soluble on expression in E. coli” value is reported as “not soluble”.

Consider “MGHHHHHHSHMAALASSLIRQKREVREPGGSRPVSAQRRVCPRGTKSLCQKQLLILLSKVRLCGGRPARPDRGPEPQLKGIVTKLFCRQGFYLQANPDGSIQGTPEDTSSFTHFNLIPVGLRVVTIQSAKLGHYMAMNAEGLLYSSPHFTAECRFKECVFENYYVLYASALYRQRRSGRAWYLGLDKEGQVMKGNRVKKTKAAAHFLPKLLEVAMYQEPSLHSVPEASPSSPPAP”, for which the “soluble on expression in E. coli” value is “soluble”.

In the case of “MGHHHHHHSHMADDIDIEAMLEAPYKKDENKLSSANGHEERSKKRKKSKSRSRSHERKRSKSKERKRSRDRERKKSKSRERKRSRSKERRRSRSRSRDRRFRGRYRSPYSGPKFNSAIRGKIGLPHSIKLSRRRSRSKSPFRKDKSPVREPIDNLTPEERDARTVFCMQLAARIRPRDLEEFFSTVGKVRDVRMISDRNSRRSKGIAYVEFVDVSSVPLAIGLTGQRVLGVPIIVQASQAEKNRAAAMANNLQKGSAGPMRLYVGSLHFNITEDMLRGIFEPFGRIESIQLMMDSETGRSKGYGFITFSDSECAKKALEQLNGFELAGRPMKVGHVTERTDASSASSFLDSDELERTGIDLGTTGRLQLMARLAEGTGLQIPPAAQQALQMSGSLAFGAVAEFSFVIDLQTRLSQQTEASALAAAASVQPLATQCFQLSNMFNPQTEEEVGWDTEIKDDVIEECNKHGGVIHIYVDKNSAQGNVYVKCPSIAAAIAAVNALHGRWFAGKMITAAYVPLPTYHNLFPDSMTATQLLVPSRR”, the “soluble on expression in E. coli” value is on record as “soluble”.

Regarding “MGHHHHHHSHMAESHPWSGRPSSSPRRSSTFANYAWKHTIKPNRILIRNARPLVINFATDRLPIIKPVDQIILEDAGTVGSALNLPSESICTRPGLLLFGHYNNDVPVTPLVDFKPDEPLQVVLTAHKTIVVPPGEFVMIIVCVNFEKIKSLDLIIHEMSTSNIPLPPTCGQTFKNFNTATPSLEIYGDVIECNDDQKTCVFTAVFPGLHRRCSLHGPLNFMGFVNSVNITGTILRVYYSGVSEAAPDSILVKFKTSSAVAFSKNPCQGHVPSHDDTLIPLVYTGPTLRLLPLETISIPFNTSFVAQNPDLKAIIYDNNLKDIRISATMWTGEQTPILAHNLTAAVKLIHSGTVFARAAFFSTKENKKACTLKLCPSTILLPGGELSLDTSTLPNCFK”, the “soluble on expression in E. coli” value is reported as “not soluble”.

For “MGHHHHHHSHMAGPVKDREAFQRLNFLYQAAHCVLAQDPENQALARFYCYTERTIAKRLVLRRDPSVKRTLCRGCSSLLVPGLTCTQRQRRCRGQRWTVQTCLTCQRSQRFLNDPGHLLWGDRPEAQLGSQADSKPLQPLPNTAHSISDRLPEEKMQTQGSSNQ”, the “soluble on expression in E. coli” value was “not soluble”.

Take “MGHHHHHHSHMAPKKAKKRAGGANSNVFSMFEQTQIQEFKEAFTIMDQNRDGFIDKNDLRDTFAALGRVNVKNEEIDEMIKEAPGPINFTVFLTMFGEKLKGADPEETILNAFKVFDPEGKGVLKADYVREMLTTQAERFSKEEVDQMFAAFPPDVTGNLDYKNLVHIITHGEEKD”: the “soluble on expression in E. coli” value was “soluble”.
